Measured values published in US20240207421A1, “NERVE TARGETING PEPTIDES AND METHODS OF USE” (ALUME BIOSCIENCES, INC., priority 2020, published 2024).

Biological target: Human Myelin Basic Protein (Homo sapiens, UniProt P02686)
Test: Phage display library screening (Example 2, Python script analysis), binding to Human Myelin Basic Protein
Parameters: Enzo 200-606-M001 from human; purchased Enzo 200-606-M001; host or cells: human brain (tissue-derived)
Details: R3 Myelin Basic Protein; combined unique sequence count, Python/R script analysis
Description: Phage display library screens were used to identify peptides that bind to target proteins (including specific laminin trimers) that are expressed in human nerves, as described in Table 3. These screens were also carried out to identify peptides that could bind selectively to nerves versus muscle. Such peptides could therefore be useful for systemic in-vivo labeling of nerves during fluorescence assisted surgery. Specifically, m 13 phage libraries expressing 7 or 12 random amino acid peptides, or a cyclic peptide CX7C, on the N-terminus of the minor coat protein pIII (New England Biolabs; NEB) were processed through multiple rounds of selection for binding to target proteins expressed in nerves, or to excised human nerves, nerve extracts, or muscle, as described further below.
For screening against the specified target proteins in Table 1, including LN211, LN411, LN421, and LN521, the phage library was processed by up to 4 binding and wash cycles. For selection, phage libraries were incubated for up to 24 hours at 4° C. in 96 well plates that had been coated with one of the target proteins. Plates were then washed with PBS and phage were eluted using 0.2M glycine pH 2.0. Phage supernatants where then neutralized with Tris pH 9.0 prior to plating on TGI bacteria and LB agar plates. Colonies were counted to determine titer followed by DNA preparation of pools of phage and NextGen sequencing. After rounds of selection, phage were pooled and amplified for iterative selection. Phage that were bound at each round were sequenced. NextGen sequencing of pools after 2, 3 and 4 rounds of selection was used to isolate candidate sequences that were analyzed further to identify those that specifically bound each unique target protein.
Python Script Analysis: For all NEB sequence datasets, a python script was used to translate, trim, and filter the peptide sequences. The script translated the nucleotide sequences, translating amber codons as glutamine in peptide sequences, and then trimmed the end sequences that come from the vector. Secondly, the script combined the unique counts of trimmed peptides with identical sequences. […] Another python script was used to group peptides from different assays according to protein target (Myelin Protein Zero, Myelin Proteolipid Protein, Myelin Basic Protein, and Nidogen-2) and also combine the unique sequence counts for each peptide. An R script was written to merge the peptide sequences from different data files and determine peptides specific for each protein target but absent from different protein binding datasets. Peptide sequences were ranked by unique sequence count.

Chain of Human Myelin Basic Protein (P02686 134-304): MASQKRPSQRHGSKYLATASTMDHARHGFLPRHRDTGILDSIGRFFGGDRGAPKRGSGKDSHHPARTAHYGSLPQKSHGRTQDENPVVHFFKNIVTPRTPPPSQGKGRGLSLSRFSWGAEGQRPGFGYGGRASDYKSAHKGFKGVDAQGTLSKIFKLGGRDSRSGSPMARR

Substance | Count
LMLPQLE (R3 Myelin Basic Protein-binding peptide) | 6
LPPQISR (R3 Myelin Basic Protein-binding peptide) | 8
LTKSLNH (R3 Myelin Basic Protein-binding peptide) | 7
LVPPVNH (R3 Myelin Basic Protein-binding peptide) | 6
MDLSLKP (R3 Myelin Basic Protein-binding peptide) | 10
MNSPLAQ (R3 Myelin Basic Protein-binding peptide) | 6
MPLLELP (R3 Myelin Basic Protein-binding peptide) | 7
MPSLKHQ (R3 Myelin Basic Protein-binding peptide) | 8
MQRLGAD (R3 Myelin Basic Protein-binding peptide) | 6
MTNHGNA (R3 Myelin Basic Protein-binding peptide) | 7
NFAQHMQ (R3 Myelin Basic Protein-binding peptide) | 9
NGPNSLQ (R3 Myelin Basic Protein-binding peptide) | 6
NGVSSSL (R3 Myelin Basic Protein-binding peptide) | 6
NLKLWTR (R3 Myelin Basic Protein-binding peptide) | 7
NLLQGVM (R3 Myelin Basic Protein-binding peptide) | 7
NLTYLRF (R3 Myelin Basic Protein-binding peptide) | 6
NMYPRVT (R3 Myelin Basic Protein-binding peptide) | 7
NPTDTNK (R3 Myelin Basic Protein-binding peptide) | 8
NSSPHQI (R3 Myelin Basic Protein-binding peptide) | 7
NTPKVLA (R3 Myelin Basic Protein-binding peptide) | 10
NTSLSFK (R3 Myelin Basic Protein-binding peptide) | 8
QGAYVRP (R3 Myelin Basic Protein-binding peptide) | 6
QGTLFDT (R3 Myelin Basic Protein-binding peptide) | 7
QKALPQT (R3 Myelin Basic Protein-binding peptide) | 6
QNSYLSN (R3 Myelin Basic Protein-binding peptide) | 8

Substance | Count
QPIDSTS (R3 Myelin Basic Protein-binding peptide) | 7
QQAHLQS (R3 Myelin Basic Protein-binding peptide) | 8
QTSIMSG (R3 Myelin Basic Protein-binding peptide) | 6
QYWDILG (R3 Myelin Basic Protein-binding peptide) | 6
RGHPSQL (R3 Myelin Basic Protein-binding peptide) | 6
RSRKHRP (R3 Myelin Basic Protein-binding peptide) | 6
RTTDWWT (R3 Myelin Basic Protein-binding peptide) | 6
RVIPSTT (R3 Myelin Basic Protein-binding peptide) | 6
SAVLMPP (R3 Myelin Basic Protein-binding peptide) | 6
SEGLTLL (R3 Myelin Basic Protein-binding peptide) | 6
SEPGTVR (R3 Myelin Basic Protein-binding peptide) | 7
SGNLKKA (R3 Myelin Basic Protein-binding peptide) | 7
SGPFPLV (R3 Myelin Basic Protein-binding peptide) | 6
SIAEVLGLWRNV (R3 Myelin Basic Protein-binding peptide) | 7
SIQTSAM (R3 Myelin Basic Protein-binding peptide) | 6
SIRMTEI (R3 Myelin Basic Protein-binding peptide) | 7
SISKIRT (R3 Myelin Basic Protein-binding peptide) | 7
SKLAGFP (R3 Myelin Basic Protein-binding peptide) | 6
SKPHASH (R3 Myelin Basic Protein-binding peptide) | 6
SLDHLRL (R3 Myelin Basic Protein-binding peptide) | 6
SLKTTNP (R3 Myelin Basic Protein-binding peptide) | 6
SLRSVGA (R3 Myelin Basic Protein-binding peptide) | 7
SLWQTLR (R3 Myelin Basic Protein-binding peptide) | 6
SLWTHRT (R3 Myelin Basic Protein-binding peptide) | 6
SNAERWR (R3 Myelin Basic Protein-binding peptide) | 9

Substance | Count
SNAHTLP (R3 Myelin Basic Protein-binding peptide) | 6
SPKPDIP (R3 Myelin Basic Protein-binding peptide) | 6
SPPRFIP (R3 Myelin Basic Protein-binding peptide) | 8
SRHLPPL (R3 Myelin Basic Protein-binding peptide) | 6
SRPTRVP (R3 Myelin Basic Protein-binding peptide) | 9
SSFYVAY (R3 Myelin Basic Protein-binding peptide) | 6
SSGMLSK (R3 Myelin Basic Protein-binding peptide) | 7
SSMRYNS (R3 Myelin Basic Protein-binding peptide) | 6
SVEYGQL (R3 Myelin Basic Protein-binding peptide) | 9
SVGLPTK (R3 Myelin Basic Protein-binding peptide) | 6
SWFESHN (R3 Myelin Basic Protein-binding peptide) | 8
SYRSMAP (R3 Myelin Basic Protein-binding peptide) | 6
SYTLSRS (R3 Myelin Basic Protein-binding peptide) | 7
SYVTVFR (R3 Myelin Basic Protein-binding peptide) | 6
TGNLRLY (R3 Myelin Basic Protein-binding peptide) | 9
TGPSSAV (R3 Myelin Basic Protein-binding peptide) | 6
TGSVSKQ (R3 Myelin Basic Protein-binding peptide) | 6
THKHMMT (R3 Myelin Basic Protein-binding peptide) | 6
TIRVAHT (R3 Myelin Basic Protein-binding peptide) | 6
TLLTALT (R3 Myelin Basic Protein-binding peptide) | 7
TPGRATL (R3 Myelin Basic Protein-binding peptide) | 6
TPLYLSS (R3 Myelin Basic Protein-binding peptide) | 7
TPQVMLK (R3 Myelin Basic Protein-binding peptide) | 8
TPVLWLP (R3 Myelin Basic Protein-binding peptide) | 6
